Assay results as given in the supplement of paper PMC9112550, “Optimization of the antimicrobial peptide Bac7 by deep mutational scanning” (BMC Biology, 2022).

System: Escherichia coli TOP10
Experiment: shrunken log2 fold change of peptide-encoding DNA abundance (4.5 h post-induction vs induction); higher = less antimicrobial activity (less host growth inhibition)
Conditions: time post-induction: 4.5 h; library: site-saturation at positions 5, 18, 19, 20
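Also: peptides expressed intracellularly from a pBAD plasmid library in pooled LB shake-flask culture, induced with 0.3% L-arabinose, DNA abundance read by NGS, three biological replicates, DESeq2 with apeglm shrinkage.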

Row | Sequence | shrunken log2 fold change
1 | RRIRFRPPRLPRPRPRPFYLPRP | -0.787
2 | RRIRTRPPRLPRPRPRPVEFPRP | 0.0128
3 | RRIRVRPPRLPRPRPRPCFFPRP | -0.137
4 | RRIRSRPPRLPRPRPRPHPDPRP | -0.0132
5 | RRIRSRPPRLPRPRPRPIRIPRP | -0.405
6 | RRIRLRPPRLPRPRPRPNGFPRP | -0.27
7 | RRIRHRPPRLPRPRPRPKNIPRP | -0.477
8 | RRIRHRPPRLPRPRPRPMNAPRP | -0.282
9 | RRIRVRPPRLPRPRPRPQERPRP | -0.119
10 | RRIRARPPRLPRPRPRPVSCPRP | 0.473
11 | RRIRRRPPRLPRPRPRPAETPRP | -0.0645
12 | RRIRHRPPRLPRPRPRPFIFPRP | -0.656
13 | RRIRCRPPRLPRPRPRPRPGPRP | 0.733
14 | RRIRNRPPRLPRPRPRPKHIPRP | -0.438
15 | RRIRWRPPRLPRPRPRPERCPRP | 0.449
16 | RRIRNRPPRLPRPRPRPHNQPRP | -0.7
17 | RRIRIRPPRLPRPRPRPDGSPRP | -0.189
18 | RRIRMRPPRLPRPRPRPDGIPRP | 1.33
19 | RRIRRRPPRLPRPRPRPMKYPRP | 0.00758
20 | RRIRSRPPRLPRPRPRPLLKPRP | 0.253
21 | RRIRPRPPRLPRPRPRPEKKPRP | -0.044
22 | RRIRPRPPRLPRPRPRPGFMPRP | 0.048
23 | RRIRNRPPRLPRPRPRPSMCPRP | -0.0503
24 | RRIRKRPPRLPRPRPRPTPWPRP | 0.798
25 | RRIRFRPPRLPRPRPRPFFCPRP | -0.206

Row | Sequence | shrunken log2 fold change
26 | RRIRTRPPRLPRPRPRPAYRPRP | -0.111
27 | RRIRSRPPRLPRPRPRPMWQPRP | -0.175
28 | RRIRCRPPRLPRPRPRPDYTPRP | -0.442
29 | RRIRKRPPRLPRPRPRPYMWPRP | -0.0774
30 | RRIRHRPPRLPRPRPRPSASPRP | -0.0379
31 | RRIRKRPPRLPRPRPRPPKMPRP | 0.383
32 | RRIRWRPPRLPRPRPRPHVQPRP | -0.209
33 | RRIRARPPRLPRPRPRPSHWPRP | -0.175
34 | RRIRFRPPRLPRPRPRPVNMPRP | -1.23
35 | RRIRRRPPRLPRPRPRPGDQPRP | 0.272
36 | RRIRNRPPRLPRPRPRPHYFPRP | -0.0132
37 | RRIRRRPPRLPRPRPRPAPKPRP | 0.905
38 | RRIRPRPPRLPRPRPRPHAQPRP | -0.119
39 | RRIRNRPPRLPRPRPRPCYNPRP | -0.124
40 | RRIRRRPPRLPRPRPRPRYHPRP | 0.14
41 | RRIRSRPPRLPRPRPRPSYDPRP | -0.609
42 | RRIRTRPPRLPRPRPRPMMKPRP | -0.11
43 | RRIRPRPPRLPRPRPRPTDSPRP | -0.245
44 | RRIRARPPRLPRPRPRPWIRPRP | -0.132
45 | RRIRERPPRLPRPRPRPFVCPRP | -0.582
46 | RRIRHRPPRLPRPRPRPNTKPRP | -0.0741
47 | RRIRWRPPRLPRPRPRPNMWPRP | 0.0493
48 | RRIRGRPPRLPRPRPRPTHAPRP | 1.3
49 | RRIRPRPPRLPRPRPRPLELPRP | 0.0125
50 | RRIRERPPRLPRPRPRPCDQPRP | 0.0916

Row | Sequence | shrunken log2 fold change
51 | RRIRLRPPRLPRPRPRPREEPRP | -0.0235
52 | RRIRYRPPRLPRPRPRPDFYPRP | -1.15
53 | RRIRRRPPRLPRPRPRPAFFPRP | 0.58
54 | RRIRYRPPRLPRPRPRPCYMPRP | 0.0232
55 | RRIRERPPRLPRPRPRPWQHPRP | -0.00568
56 | RRIRNRPPRLPRPRPRPPEIPRP | -0.169
57 | RRIRSRPPRLPRPRPRPRIEPRP | 0.753
58 | RRIRERPPRLPRPRPRPHPSPRP | -0.222
59 | RRIRWRPPRLPRPRPRPHLAPRP | 0.265
60 | RRIRVRPPRLPRPRPRPICVPRP | -0.0314
61 | RRIRNRPPRLPRPRPRPHGTPRP | -0.105
62 | RRIRKRPPRLPRPRPRPCKHPRP | -0.11
63 | RRIRWRPPRLPRPRPRPLSCPRP | 0.154
64 | RRIRQRPPRLPRPRPRPETQPRP | 0.0133
65 | RRIRYRPPRLPRPRPRPYRRPRP | -0.00141
66 | RRIRKRPPRLPRPRPRPRAKPRP | 0.173
67 | RRIRLRPPRLPRPRPRPTAMPRP | 0.0595
68 | RRIRMRPPRLPRPRPRPIVGPRP | 0.108
69 | RRIRTRPPRLPRPRPRPAKYPRP | -0.355
70 | RRIRNRPPRLPRPRPRPVSSPRP | -0.00623
71 | RRIRNRPPRLPRPRPRPRTPPRP | 0.261
72 | RRIRSRPPRLPRPRPRPLCGPRP | 0.0948
73 | RRIRVRPPRLPRPRPRPWPVPRP | 0.197
74 | RRIRMRPPRLPRPRPRPSPDPRP | 1.19
75 | RRIRPRPPRLPRPRPRPPPMPRP | 0.52

Row | Sequence | shrunken log2 fold change
76 | RRIRRRPPRLPRPRPRPWKNPRP | 0.206
77 | RRIRPRPPRLPRPRPRPIMWPRP | 0.253
78 | RRIRMRPPRLPRPRPRPCIEPRP | -0.122
79 | RRIRYRPPRLPRPRPRPATTPRP | -0.415
80 | RRIRWRPPRLPRPRPRPMVCPRP | 0.199
81 | RRIRKRPPRLPRPRPRPILQPRP | 0.0319
82 | RRIRVRPPRLPRPRPRPHPFPRP | -0.0878
83 | RRIRRRPPRLPRPRPRPAKVPRP | 0.0346
84 | RRIRVRPPRLPRPRPRPWASPRP | 0.0586
85 | RRIRNRPPRLPRPRPRPIEWPRP | -0.00176
86 | RRIRDRPPRLPRPRPRPPVSPRP | 0.0155
87 | RRIRKRPPRLPRPRPRPQDMPRP | -0.036
88 | RRIRWRPPRLPRPRPRPHCNPRP | -0.465
89 | RRIRCRPPRLPRPRPRPILAPRP | 0.127
90 | RRIRTRPPRLPRPRPRPLKPPRP | -0.126
91 | RRIRERPPRLPRPRPRPWLEPRP | 0.101
92 | RRIRVRPPRLPRPRPRPSYRPRP | -0.775
93 | RRIRMRPPRLPRPRPRPPFKPRP | 0.173
94 | RRIRRRPPRLPRPRPRPSDFPRP | -0.116
95 | RRIRERPPRLPRPRPRPIPWPRP | -0.345
96 | RRIRRRPPRLPRPRPRPFEAPRP | 1.04
97 | RRIRARPPRLPRPRPRPRLHPRP | 0.376
98 | RRIRHRPPRLPRPRPRPPYYPRP | -0.296
99 | RRIRFRPPRLPRPRPRPTHGPRP | -0.0666
100 | RRIRNRPPRLPRPRPRPTAYPRP | -0.184

Row | Sequence | shrunken log2 fold change
101 | RRIRCRPPRLPRPRPRPRMCPRP | 0.337
102 | RRIRQRPPRLPRPRPRPEANPRP | 0.0119
103 | RRIRSRPPRLPRPRPRPFEFPRP | -0.42
104 | RRIRHRPPRLPRPRPRPDCCPRP | -0.0827
105 | RRIRGRPPRLPRPRPRPKNEPRP | 0.713
106 | RRIRSRPPRLPRPRPRPQWPPRP | 0.121
107 | RRIRPRPPRLPRPRPRPFSQPRP | -0.231
108 | RRIRFRPPRLPRPRPRPGHHPRP | -0.561
109 | RRIRVRPPRLPRPRPRPERHPRP | -0.0734
110 | RRIRQRPPRLPRPRPRPKRWPRP | 0.0413
111 | RRIRFRPPRLPRPRPRPTQPPRP | 0.202
112 | RRIRFRPPRLPRPRPRPHRGPRP | 0.0928
113 | RRIRARPPRLPRPRPRPIAMPRP | 0.207
114 | RRIRIRPPRLPRPRPRPIQHPRP | -0.468
115 | RRIRQRPPRLPRPRPRPWQPPRP | -0.00999
116 | RRIRHRPPRLPRPRPRPEYYPRP | -0.241
117 | RRIRVRPPRLPRPRPRPSATPRP | 0.43
118 | RRIRTRPPRLPRPRPRPRKNPRP | 0.136
119 | RRIRIRPPRLPRPRPRPNMLPRP | -1.18
120 | RRIRSRPPRLPRPRPRPAHEPRP | -0.074
121 | RRIRARPPRLPRPRPRPFVIPRP | 0.0345
122 | RRIRIRPPRLPRPRPRPCATPRP | -0.122
123 | RRIRSRPPRLPRPRPRPARGPRP | 0.574
124 | RRIRWRPPRLPRPRPRPSFDPRP | 0.0774
125 | RRIRFRPPRLPRPRPRPQTMPRP | -0.144
